{
  "source": "the RNAGym collection of RNA variant scans (doi:10.7554/elife.80360)",
  "parents": {"B1": {"name": "HDV Ribozyme (parent)", "chain": "GGCCGGCAUGGUCCCAGCCUCCUCGCUGGCGCCGGCUGGGCAACAUUCCGAGGGGACCGUCCCCUCGGUAAUGGCGAAUGGGACCCA"}},
  "data": [
    {"variants_of": "B1", "experiment": "self-cleavage, relative activity (ratio to wild type); higher = more cleavage; co-transcriptional", "values": [
      {"variant": "GGCCGGCAUGGUCCCAGCCUCCUCGCUGGCGCCGGCUGGGCAACAUUCCGAGGGGACCGUCCCAUCAGUAAUGGCGAAUGGGACCCA", "note": "[C64A G67A]", "self-cleavage": 0.369},
      {"variant": "GGCCGGCAUGGUCCCAGCCUCCUCGCUGGCGCCGGCUGGGCAACAUUCCGAGGGGACCGUCCCAUCCGUAAUGGCGAAUGGGACCCA", "note": "[C64A G67C]", "self-cleavage": 0.277},
      {"variant": "GGCCGGCAUGGUCCCAGCCUCCUCGCUGGCGCCGGCUGGGCAACAUUCCGAGGGGACCGUCCCGUCGGUAAUGGCGAAUGGGACCCA", "note": "[C64G]", "self-cleavage": 0.954},
      {"variant": "GGCCGGCAUGGUCCCAGCCUCCUCGCUGGCGCCGGCUGGGCAACAUUCCGAGGGGACCGUCCCAUCGGUAAUGGCGAGUGGGACCCA", "note": "[C64A A78G]", "self-cleavage": 0.686},
      {"variant": "GGCCGGCAUGGUCCCAGCCUCCUCGCUGGCGCCGGCUGGGCAACAUUCCGAGGGGACCGUCCCAUCGGUAAUGGCGACUGGGACCCA", "note": "[C64A A78C]", "self-cleavage": 0.242},
      {"variant": "GGCCGGCAUGGUCCCAGCCUCCUCGCUGGCGCCGGCUGGGCAACAUUCCGAGGGGACCGUCCCAUCGGUAAUGGCGAUUGGGACCCA", "note": "[C64A A78U]", "self-cleavage": 0.285},
      {"variant": "GGCCGGCAUGGUCCCAGCCUCCUCGCUGGCGCCGGCUGGGCAACAUUCCGAGGGGACCGUCCCAGCGGUAAUGGCGAAUGGGACCCA", "note": "[C64A U65G]", "self-cleavage": 0.937},
      {"variant": "GGCCGGCAUGGUCCCAGCCUCCUCGCUGGCGCCGGCUGGGCAACAUUCCGAGGGGACCGUCCCAACGGUAAUGGCGAAUGGGACCCA", "note": "[C64A U65A]", "self-cleavage": 0.895},
      {"variant": "GGCCGGCAUGGUCCCAGCCUCCUCGCUGGCGCCGGCUGGGCAACAUUCCGAGGGGACCGUCCCAUCGGUAAUGGCGAAUAGGACCCA", "note": "[C64A G80A]", "self-cleavage": 0.611},
      {"variant": "GGCCGGCAUGGUCCCAGCCUCCUCGCUGGCGCCGGCUGGGCAACAUUCCGAGGGGACCGUCCCAUCGGUAAUGUCGAAUGGGACCCA", "note": "[C64A G74U]", "self-cleavage": 0.327},
      {"variant": "GGCCGGCAUGGUCCCAGCCUCCUCGCUGGCGCCGGCUGGGCAACAUUCCGAGGGGACCGUCCCAUCGGUAAUGCCGAAUGGGACCCA", "note": "[C64A G74C]", "self-cleavage": 0.242},
      {"variant": "GGCCGGCAUGGUCCCAGCCUCCUCGCUGGCGCCGGCUGGGCAACAUUCCGAGGGGACCGUCCCAUCGGUAAUGACGAAUGGGACCCA", "note": "[C64A G74A]", "self-cleavage": 0.295},
      {"variant": "GGCCGGCAUGGUCCCAGCCUCCUCGCUGGCGCCGGCUGGGCAACAUUCCGAGGGGACCGUCCCAUCGGUAAUCGCGAAUGGGACCCA", "note": "[C64A G73C]", "self-cleavage": 0.256},
      {"variant": "GGCCGGCAUGGUCCCAGCCUCCUCGCUGGCGCCGGCUGGGCAACAUUCCGAGGGGACCGUCCCAUCGGUAAUGGCGAAUGGAACCCA", "note": "[C64A G82A]", "self-cleavage": 0.282},
      {"variant": "GGCCGGCAUGGUCCCAGCCUCCUCGCUGGCGCCGGCUGGGCAACAUUCCGAGGGGACCGUCCCAUCGGUAAUGGCGAAUGGUACCCA", "note": "[C64A G82U]", "self-cleavage": 0.409},
      {"variant": "GGCCGGCAUGGUCCCAGCCUCCUCGCUGGCGCCGGCUGGGCAACAUUCCGAGGGGACCGUCCCAUCGGCAAUGGCGAAUGGGACCCA", "note": "[C64A U69C]", "self-cleavage": 0.782},
      {"variant": "GGCCGGCAUGGUCCCAGCCUCCUCGCUGGCGCCGGCUGGGCAACAUUCCGAGGGGACCGUCCCAUCGUUAAUGGCGAAUGGGACCCA", "note": "[C64A G68U]", "self-cleavage": 0.272},
      {"variant": "GGCCGGCAUGGUCCCAGCCUCCUCGCUGGCGCCGGCUGGGCAACAUUCCGAGGGGACCGUCCCAUCGCUAAUGGCGAAUGGGACCCA", "note": "[C64A G68C]", "self-cleavage": 0.554},
      {"variant": "GGCCGGCAUGGUCCCAGCCUCCUCGCUGGCGCCGGCUGGGCAACAUUCCGAGGGGACCGUCCCAUCGGUAAUGGCGAAUGGGACUCA", "note": "[C64A C85U]", "self-cleavage": 0.72},
      {"variant": "GGCCGGCAUGGUCCCAGCCUCCUCGCUGGCGCCGGCUGGGCAACAUUCCGAGGGGACCGUCCCAUCGGUAAUGGCGAAUGGGAGCCA", "note": "[C64A C84G]", "self-cleavage": 0.536},
      {"variant": "GGCCGGCAUGGUCCCAGCCUCCUCGCUGGCGCCGGCUGGGCAACAUUCCGAGGGGACCGUCCCAUCGGUAAUGGCGAAUGGGAACCA", "note": "[C64A C84A]", "self-cleavage": 1.15},
      {"variant": "GGCCGGCAUGGUCCCAGCCUCCUCGCUGGCGCCGGCUGGGCAACAUUCCGAGGGGACCGUCCCAUCGGUAAUGGCGAAUGGGCCCCA", "note": "[C64A A83C]", "self-cleavage": 0.332},
      {"variant": "GGCCGGCAUGGUCCCAGCCUCCUCGCUGGCGCCGGCUGGGCAACAUUCCGAGGGGACCGUCCCAUCGGUAAUGGCGAAUGGGUCCCA", "note": "[C64A A83U]", "self-cleavage": 0.511},
      {"variant": "GGCCGGCAUGGUCCCAGCCUCCUCGCUGGCGCCGGCUGGGCAACAUUCCGAGGGGACCGUCCCAUCGGUAAUGGCGAACGGGACCCA", "note": "[C64A U79C]", "self-cleavage": 0.636},
      {"variant": "GGCCGGCAUGGUCCCAGCCUCCUCGCUGGCGCCGGCUGGGCAACAUUCCGAGGGGACCGUCCCAUCGGUAAUGGCGAAUGGGACCCC", "note": "[C64A A87C]", "self-cleavage": 0.779},
      {"variant": "GGCCGGCAUGGUCCCAGCCUCCUCGCUGGCGCCGGCUGGGCAACAUUCCGAGGGGACCGUCCCAUCGGUAAUGGCGAAUGUGACCCA", "note": "[C64A G81U]", "self-cleavage": 0.379},
      {"variant": "GGCCGGCAUGGUCCCAGCCUCCUCGCUGGCGCCGGCUGGGCAACAUUCCGAGGGGACCGUCCCAUCGGUAAUGGCGAAUGCGACCCA", "note": "[C64A G81C]", "self-cleavage": 0.203},
      {"variant": "GGCCGGCAUGGUCCCAGCCUCCUCGCUGGCGCCGGCUGGGCAACAUUCCGAGGGGACCGUCCCAUCGGUAAUGGCGCAUGGGACCCA", "note": "[C64A A77C]", "self-cleavage": 0.344},
      {"variant": "GGCCGGCAUGGUCCCAGCCUCCUCGCUGGCGCCGGCUGGGCAACAUUCCGAGGGGACCGUCCCAUCGGUAAAGGCGAAUGGGACCCA", "note": "[C64A U72A]", "self-cleavage": 0.491},
      {"variant": "GGCCGGCAUGGUCCCAGCCUCCUCGCUGGCGCCGGCUGGGCAACAUUCCGAGGGGACCGUCCCAUCGGUAACGGCGAAUGGGACCCA", "note": "[C64A U72C]", "self-cleavage": 0.465},
      {"variant": "GGCCGGCAUGGUCCCAGCCUCCUCGCUGGCGCCGGCUGGGCAACAUUCCGAGGGGACCGUCCCAUCGGUAAGGGCGAAUGGGACCCA", "note": "[C64A U72G]", "self-cleavage": 0.856},
      {"variant": "GGCCGGCAUGGUCCCAGCCUCCUCGCUGGCGCCGGCUGGGCAACAUUCCGAGGGGACCGUCCCAUCGGUAUUGGCGAAUGGGACCCA", "note": "[C64A A71U]", "self-cleavage": 0.855}
    ]}
  ]
}
